Results from publication PMC3458437.
Values joined by “and” are separate entries in the source; they are usually repeats but may differ in a detail not shown here. Equal entries are not always repeated.

Substrate: O=P(O)(O)CCO
Experiment: O2 consumption, Clark-type oxygen electrode, initial rates
Assay type: biochemical, Nitrosopumilus maritimus
Settings: co-substrate O2 about 250 μM; Fe(II)-reconstituted enzyme; labelled compound

B1: methylphosphonate synthase (MPnS) (Nitrosopumilus maritimus SCM1) (protein)
chain: MEKKIDFKPDSYLIRSGNNFLGILNDIKRRPEDAANELGVSIEEINSIISGKQKISPSLIEKAVNIWPVNERDFYIVSDDCSSGILIMTSQDSIKSSRIMERAGKPYYEYRDTAMSKTAPFRPEWILELCKVENNDPENPKAQWNNGHFMHQFTYFIGEVNFYYKDPEGKKHVAIMNTGDSMYITPFTPHTFTTRDGASQNGLILALTYGSKLTGDIQQELSSLSLDCGSQYALDFTNHENASLSLLEYYFELSNLTKEKFAKRTNFSMETLADFFTKKKLPTFDELKIIAKALNVNSRDLMPNDLTESKVIVKTHDQCDHWKYPESGNYEFYELASTTALPHSKAFEIDVSSSEDLNLDLKVGLHQYVYNIGDSALTINWNYENKTYQKSLNPGDSAYIKPFVPHNFRGNGKILILRIGGKISGDSQRELSFVGRENTQRAISETMQWFDPKGSNS
Km: 7.1 ± 0.8 µM and 6.5 ± 1.5 µM and 7.2 ± 1.4 µM
kcat: 0.17 ± 0.01 s⁻¹
kcat/Km: 24000 M⁻¹ s⁻¹ (2×) and 26000 M⁻¹ s⁻¹
